In patent US8652467B2, “Dek protein compositions and methods of using the same” (The Regents of the University of Michigan, priority 2005, dated 2014):
Entries after “also recorded” stand apart in the source; their conditions may differ.

How the values were obtained:
[1] = test system: monocyte-depleted peripheral white blood cells; test: In vitro migration assay with monocyte-depleted peripheral white blood cells; assay type: cell-based, human
Description: (A). […] Day 12 MDM grown in 10% serum were maintained for 12 h in serum-free conditioned media alone or with 10 ng/ml of recombinant IL-8. Supernatants were harvested, and secreted DEK detected in the supernatant by Western blot using DEK-specific monoclonal antibody. (B). DEK is a chemoattractant. Monocyte-depleted peripheral white blood cells were prepared. 1×10^5 cells in 100 μl RPMI were placed in the upper chambers of a 24-well chemotaxis microchamber plate with pore size of 3 μM. Lower chambers contained RPMI medium with various concentrations of recombinant DEK (made in baculovirus), recombinant GLI-2 control protein (also made in baculovirus), or no protein control (C′). After 1 h, the number of fluorescently labeled migrating cells in the lower chamber was determined at 485 nM/535 nm wavelengths by Tecan GENios (Phenix, Austria). The results are expressed as the average fold increase of the number of cells migrating toward DEK or GLI-2 compared to control wells containing medium only. Data shown using 34 nM and 68 nM DEK are the average of three different donors, while data using 136 nM DEK are the average of six different donors. […] (C). […] Fluorescence profiles were recorded by FACS analysis. The results are expressed as the average fold increase of the percentage of cells migrating toward DEK vs. control wells containing medium only. […]

neutrophils = test: Neutrophil migration into the peritoneum after intraperitoneal injection; assay type: in vivo, C57BL6 mice; settings: 50 μg intraperitoneal, 8 h following injection, vs GLI-2 and PBS controls
Description: (A). Purified neutrophils were placed in the upper chambers of a 24-well chemotaxis microchamber plate with pore size of 3 μM or 5 μM. Lower chambers contained RPMI medium with various concentrations of recombinant DEK, as indicated. The bar labeled “control” contained only media in the lower chamber. The bar labeled “DEK up” had DEK in the upper chamber and media in the lower chamber. […] (B). Groups of mice received intraperitoneal injections of either PBS or 50 μg of either LPS, recombinant DEK, or a recombinant protein control prepared in parallel to DEK in baculovirus (an isoform of human GLI-2). Twenty mice were tested in each of the four groups. Half of the mice in each group were sacrificed after 4 hours (white bars), and the other half at 8 hours (black bars) after intraperitoneal injection, and then subjected to peritoneal lavage. The bars represent the average number of neutrophils migrating into the peritoneum of each group of mice.
In order to confirm that DEK is a chemoattractant, an in vivo murine model was used. Four groups of twenty 4-6 week old male C57BL6 mice were injected intraperitoneally with 50 μg of DEK, 50 μg of a recombinant control protein also prepared in baculovirus (GLI-2) (See, e.g., Smith et al., J Virol 75, 2301-13 (2001)), 50 μg of LPS, or PBS alone.

B1: DEK: full-length recombinant DEK protein produced in baculovirus (protein, UniProt P35659 1-375, looked up)
chain: MSASAPAAEGEGTPTQPASEKEPEMPGPREESEEEEDEDDEEEEEEEKEKSLIVEGKREKKKVERLTMQVSSLQREPFTIAQGKGQKLCEIERIHFFLSKKKTDELRNLHKLLYNRPGTVSSLKKNVGQFSGFPFEKGSVQYKKKEEMLKKFRNAMLKSICEVLDLERSGVNSELVKRILNFLMHPKPSGKPLPKSKKTCSKGSKKERNSSGMARKAKRTKCPEILSDESSSDEDEKKNKEESSDDEDKESEEEPPKKTAKREKPKQKATSKSKKSVKSANVKKADSSTTKKNQNSSKKESESEDSSDDEPLIKKLKKPPTDEELKETIKKLLASANLEEVTMKQICKKVYENYPTYDLTERKDFIKTTVKELIS
modifications: full-length
notes: full-length recombinant DEK protein produced in baculovirus
Question: With B1 as the molecule, how does the “migration of CD8+ cells and CD56+ cells towards DEK” value ([1]; 79 nM DEK, 1 hour, FACS analysis, vs medium only) read?
Answer: statistically significant

Question: What about the “migration of white blood cells toward DEK” value ([1]; 34, 68, 136 nM DEK in lower chamber, 1 h, vs GLI-2 control protein or media alone) of the same molecule?
Answer: statistically significant; also recorded: increase in a dose-dependent fashion

Question: What about the “neutrophil migration into the peritoneum” value (neutrophils) of the same molecule?
Answer: significantly increased the infiltration of neutrophils; also recorded: significantly induces neutrophil migration
